Data from the DeepSol protein solubility set.

Assay: soluble on expression in E. coli; label from the status in PepcDB or PDB records
With “MGSDKIHHHHHHMEFIPPKRLLELIRQYSTTFENWHSVMLSIYLHKERIKCKLRNGQLLYLKPNEIVLLAGLKIVELNEDSVRFQFNGREICLKGWKLSYPGDSFSDYWRIDVRGKRVLDIGAGIGDSPIYFSIAGAKEVVAVEVDSKKVELMRENLKANSINNVIVVDKGVGIKDDENYISWPKLISNYGPFDVAKIDCDGCEKIIVPYIKEIPSLLIEWDYNYKDIVSNLTKNGYKVKVEHTLKNLGFIYAKKR” the “soluble on expression in E. coli” value was “not soluble”.
For “MGSDKIHHHHHHMTFRGGNTGAKHAVVVGSGPNGLTTAAVLAKAGWQVDVYEAAPTPGGAARSESVLGEGTISDLGAAGHPFGVASPAFHYLGLEDHGLEWAYSPFAMAHPLDYGRAGLLETSLPETAKKLGPDARRWKNLHQGLTKNIDKHLANLLGPVLKWPAHPIRMAKFGPFALLPAKRLASAAFETEEARSLFIGSAMHSVTPPHKPMTASLGLLFGALGMSRGWPVAVGGSGRIVDALVNVINHHGGTIHCDSQIDSLSQFRDTDAIILNQTPSQVLKLKGTDLNAGLPQRMSTWKHGPSSYKVDYLLDGPIPWSNPQVGQATTVHVGGSSEEIAFAEAEVAAGRMPERPFIILCQQQVADPSRAREGRHVVWAYAHVPRGFVDKRAALLITAQIERFAPGFRDRIVHSVDTNAEDLEAWNPNLVGGDITAGSALLRRMPTKIGEKTYMASASNAPGGGVHGMPGWWAAQAVLADHR”, the “soluble on expression in E. coli” value was “not soluble”.
For “MSSENDFVEFSSMFERIIQGRGDGLSRFLPVIVALAAREDDDDQGSTDQTTRRGDPLSPRFVMIGSRSGLDDFFSDGGKQGRSPALKSEVENMPRVVIGEDKEKYGGSCAICLDEWSKGDVAAEMPCKHKFHSKCVEEWLGRHATCPMCRYEMPVEEVEEEKKIGIWIGFSINAGDRRN”, the “soluble on expression in E. coli” value was “not soluble”.
In the case of “MRPSGRMENKKQSKGASRGSRRRSINTSNSNTSARHAFSPCSYSSSGTEIRKVAISVSSNSTTELPCAQSPNVGSRTSDSHQLTLGSDLRSEPNNLNIAATLAEPNIAEHFKGVLTKKEAANLTRRDDFTMYYRVVKDQAKVELETTIPLFICYRNSENKVFSFRVEQVLTENNSMWWTVMINKQHTQMFRRLLDLVRCYHSYRFINPETRSQEMFPIWKYTNQASMNP”, the “soluble on expression in E. coli” value is reported as “not soluble”.
With “MEWLNEPPNWSHSDQKIIVTTSPKTDFWRITHYGFIRDSGHFYFDRVSTDFVVDVKIKGNYKDLYDQAGIMIRADEQHWIKTGIEYVDGVQNLSAVVTHNYSDWSFTPLLNPPNIFQVRVERCQEAIHIAYLDEYSRYVPFRMAYFPVALDIQVGIMCASPQGNGYEVIFEDYQLTKKGEKLSLEHHHHHH” the “soluble on expression in E. coli” value was “not soluble”.
For “MSLGMAAWDRNSINPLQAYVYKTSKLPFYDENLHNLAEKIAPHCLLAHLRGVSYHDKQVVTDQNVHPFLYPVTSIALAHNGMLHNFETMRYDLLKYVKTEYRKYIKGTTDSEWIYAVFLSQLENPKGHFDASEIINAVIATLKILKTVRQQNNIVINSPVNLFLTNGDFIAATRFCLDYGWKPKDATQSTHFTYHSLWYTYGERYGFYENEYKMKGGTINSSIIIASEPLTENTTTWLEVPEYTLIFANQVDGEIKITSQDINEGHHHHHH”, the “soluble on expression in E. coli” value was “not soluble”.
With “MGSDKIHHHHHHNEDNLKIKTIKGDSNELDHININFGYALNGYINSYYTINGSNKTKKTELIKLQKDSKNTNNLIDVSSGSDLIAHVGFEMNEESKDINFVIDEKKEDLEKGVFPSEGSDKEIEYEKLDMNNFTRTRYKVDKSTDDYYAKILASKRYKKYLYVSVLYATSDSSENNKEYSSTIDIIKINPENKKIKTIKSINLSNYFSEKYQNIENIGVSYASKYEDKMYILVNVLNTNIGDNSNSKFHLLEYNLEENKESIMELKTDSKMALAKAKLEANKLYMVMSNDYDNSSITELNLLTYNILDKSLDEDKYVLDNREKRGIRSIEIDSNKIVAYTSRLNSILSWDDKFMLYIINKNSKEIVYEGELQFNSSNSMLEFEIK” the “soluble on expression in E. coli” value was “not soluble”.
In the case of “MAHHHHHHMMRERAAALDDLNALLTVNKDHPQGLALRMSLNTQLGNLVDAHRDGKHLVRVYKALNKPDKSQQTSEKVHRLERYTVRWTALSDLWSQPVGAYTAATNDAVLMRKYRECVDLLARIIHEFSMESVELRLRRAACALAADDNIAATQELKYVTQRSPQNLDAIALNAQALRRLGALDQSMSELRRCLNLDPEYAPCANLHKLIRQQQRMTKNIEKRLQEKKFEAVVQLIAETRAAEPHAPYEEQLAAWHCEALVSLRSTDEGIRVCQALVDRYDGANNPTVFDAHIRLAELHLLDDNIAAAEAALQKAREIRQHDGKVEEMRLKIEKLKRTGPRKDYYKILGLKKTASAQEIRRAYRKLAKSSHPDQLRSKDMTDREREKQEKMFRDVNEAKEVLLDEEKRARYDSGEDVNQPAGQRGEPFFGSHFAGGFPGGFPGGFPGGFPGGFPGGFHQQRDGGVHQQFFFFNREN”, the “soluble on expression in E. coli” value is reported as “not soluble”.
For “MSLIGVIGVKRNVDIAIREKLALYPKKHKKYVGELLNSFKEVVILNTCNRTEIYFNCTEEISEDEIFDKIFNVFNWNDDLKKYMFLSKEKRAVTHLMEVICGFHSRILGEDQILGQIKGAYKTAISDNSISSELQKMFEIAIACGKKFKTECKMFEVPVSSVSISINSALLKGCRKFMVLGYGEIGKLAIKHLLSHKVECIYLIVRDKSKASDLEGEIVEVLDFNEKNQVINEIDCIVSCTAAPHTVVRNEDIKTEGETIHIYDLAVPRDVDKELSEKERVILKDIDEISKIDDKNKKIRKERMEEYKHIVEESIDEFLNWLKIREVSSKIRNIKIRENEICSERIKTFSNKGNGENAKLAERMIKSTADAYVNRAIELLKSEALKGSDSYCAEIIEKIFLTEGHHHHHH”, the “soluble on expression in E. coli” value was “soluble”.
For “MKKKDRYTISELAREFEISTRTIRYYEEIGLLNPERTPGNQRIFSRKDRAKLKLILRGRRLGFSLEEIREMIEMYDVAGEPEQIRLTLKYGEKKLKEIEEKIRELELLKEDLLNLREMLVKRLEELEKGS”, the “soluble on expression in E. coli” value was “not soluble”.
With “MTLLLPRRRFSALLDHIKNWTSSIRADKQYRSFSTGDLVSPSQPSAFEPDFMEMEFGATPTTSSLPSHFDDNDLVPVEFKKSGVKLIPQGTRKAEKAKKFGSFEELSKVKLEDIHRAQSWFFVDVDPKSAERILMSNGFSDSSFLISFFRQKYVLSIWRKTKVEHLVIRNYQKKNGTMAFQLDIDRSFKNLVELTEYYTKNKSYVLCTKLSKGVSRPRRNPDTRTRA” the “soluble on expression in E. coli” value was “not soluble”.
For “MLNLCDEDFDAMELVEGALALNKAINPETQLEWAHIELARLLKEAELALVHERDEKARFEAFLRLFYQEWGFSGDREAYFDSRNAFIDQVLQRRKGIPVSLGSLLLYLGHKLGFPLNGISFPTQFLLSLNWSGERPIYLNPFNGEIVSQHTLQAWLVGHKGPLAKLKPQHLQSVDNPTIIGRWLALLKSALLREERYTLALRCTDLALTFVPDDPYEIRDRGFIYQQLQCHQIAISDYQYFIEHCPNDPAAELLKTQVNALSHDSQVTLHLEHHHHHH”, the “soluble on expression in E. coli” value was “soluble”.
For “DCMFGNGKGYRGKRVTTVTGTPCQDWAAQEPHRHSIFTPETNPRAGLEKNYCRNPDGDVGGPWCYTTNPRKLYDYCDVPQCAAP”, the “soluble on expression in E. coli” value was “soluble”.
In the case of “MAHHHHHHMLMVPMKFARAHLRRLHALQPTPTFAIECSLPFLCAWRAMKHRSLAPDDPFGERSTFSDPSDGLFAAWSGVDFNAFADAASSDEVRTAHFGPEWSRFATVGRLSVKIMREQGTPGVASAVSSKGGNKVLPRPPTAEELHSRELQARRKALEGNYATYEQYVMKELGIEDGGNEDEHMEEEMDDATEVANASEESMPLPHFMVERGEGQAHANDTNKQESTNGKPLLRTREGLQVPEPLMQMILDALGEPHGDRHLPRSDPLHWNTEVVILWVRKLEAARFALVSAAGTGEASLLEAPLMEDPSMHEAFRMARTNGKFLLHHTVPNTMFQVMRRWYLRRQEIALTFMKERQEMKNTTSISKDDVNDATFKSALEAGRAKLDELAAKVTPILIQETISQCYPYCH”, the “soluble on expression in E. coli” value is reported as “not soluble”.
For “MSLVERALQVGSPAPDFALPNAVGREVRLSSVTARGPSVITFYRGAWCPYCSLQLRAYQKILPQLKLLGGELLAISPQTPDKTQATLLKNFLEYEVLSDVGNRVAKRFGLVYPVGAEVRRIYLGFGVDLAEYNGDDSWELPLPGTFVIDRTMTVRLSFVDADYTRRLEPAAILDTLRAMRDVGGIPEGHHHHHH”, the “soluble on expression in E. coli” value was “not soluble”.
For “MTTGGEDSRRTLSPGTMIVIVGPSGAGKDTLMDYAAAQLSGRPGFHFTRRVITRSCDAGGENHDAVSMHEFNQLEDAGAFAVSWQAHGLKYGIPAAVYRHLEAGDVVIANGSRSALPHFGTAFSRLKVVNIVARPDVLARRLEQRGRESRDDILRRLERSSLAVAGDFDVTTVDNSGAIEDAGKTIMQVLQQSAGSSQP”, the “soluble on expression in E. coli” value was “not soluble”.
